The record followed here is patent US20250122298A1 (OSSIANIX, published 2025).

Assay [1] has as its target T1, recombinant cynomolgus TfR-1 (cynomolgus, UniProt H9EXL1 89-760 (rhesus entry)).
T1 construct: also called cTfR-1; cTfR1
The assay is described as follows: ELISA, plate-coated recombinant cTfR1, anti-hFc HRP detection. The protocol:
(§1) TfR1 ELISA. Nunc MaxiSorp plates were coated with 100 ul of 1 μg/ml of in-house purified recombinant human, cynomolgus TfR1 or HSA and incubated at 4° C. overnight. Plates were incubated with blocking buffer (2.5% non-fat dry milk in PBST) for 1 hr at RT. Serial dilutions of TXP1, TXPID1 or TXP1D4 were mixed with non-fat dry milk in PBST to a final concentration of 2.5% and incubated for 30 min. Blocked VNAR antibody solutions (100 μl) were transferred to the blocked plates and incubated for 1 hr. Plates were washed with PBST and incubated with anti-hFc HRP-conjugated antibody diluted 1:5,000 (Sigma) in blocking buffer for 30 min. Plates were washed and developed with SureBlue TMB substrate. Were indicated the velocity of colorimetric reaction development was measured in the kinetic mode at 370 nm and the maximum peak was used for quantitation (Vmax at 370 nm). Alternatively, the TMB reaction was stopped with 1% HCl and absorbance was measured at 450 nm (OD at 450 nm).

In another assay the target is T2, HSA (human, UniProt P02768 25-609).
T2 construct: also called human serum albumin (negative control)
T2 sequence (P02768 25-609 limits assumed): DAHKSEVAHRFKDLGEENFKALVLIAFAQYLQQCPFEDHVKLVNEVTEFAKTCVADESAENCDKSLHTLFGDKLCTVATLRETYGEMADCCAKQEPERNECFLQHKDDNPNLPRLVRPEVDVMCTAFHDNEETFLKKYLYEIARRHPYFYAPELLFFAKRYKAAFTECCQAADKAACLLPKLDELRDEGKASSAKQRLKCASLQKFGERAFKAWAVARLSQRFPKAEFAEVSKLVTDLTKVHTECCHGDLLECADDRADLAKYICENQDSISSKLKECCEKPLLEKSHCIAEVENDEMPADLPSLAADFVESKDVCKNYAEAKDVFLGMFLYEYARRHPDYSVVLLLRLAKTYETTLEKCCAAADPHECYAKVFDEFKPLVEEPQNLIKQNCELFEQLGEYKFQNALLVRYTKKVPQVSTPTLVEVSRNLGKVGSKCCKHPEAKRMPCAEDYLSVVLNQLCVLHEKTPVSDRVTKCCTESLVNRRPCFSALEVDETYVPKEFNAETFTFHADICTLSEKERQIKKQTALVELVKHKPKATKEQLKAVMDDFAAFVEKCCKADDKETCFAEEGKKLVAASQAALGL
The assay is described as follows: ELISA, plate-coated HSA as negative control, anti-hFc HRP detection.

Assay [2] addresses T3, recombinant human TfR-1 (human, UniProt P02786 89-760, limits assumed).
T3 construct: also called hTfR-1; hTfR1
The assay is described as follows: ELISA, plate-coated recombinant hTfR1, anti-hFc HRP detection. Here is the method: as §1

In assay [3] the target is T3, recombinant human TfR-1. The assay is described as follows: SPR Biacore T200, His-tagged TfR1 captured by anti-His, multi-cycle kinetics, 1:1 model. Here is the method: Binding kinetics. Binding kinetics of TXP1, TXP1D1 and TXP1D4 were determined by surface plasmon resonance (SPR) using a Biacore T200 (GE Healthcare). A His-capture kit (GE Healthcare) was used to immobilize anti-His antibodies on CM5 chips (as recommended by the manufacturer). His-tagged recombinant hTfR1 in 0.1% BSA in HBS-EP+ buffer (GE Healthcare) was captured at flow rate 10 μl/min. Analyte binding was measured using the multi-cycle kinetic SPR method. Starting analyte concentrations at 400 nM and serially diluted in 1:4 in seven steps. Association and dissociation were measured for 360s and 1500s respectively, with flow rate at 30 μl/min. The chips were regenerated in 10 mM Glycine-HCl, pH 1.5. Sensorgrams were fitted using 1:1 binding model and kinetic constants determined using Biacore T200 Evaluation software (Cytiva).

Assay [4] deals with T3, recombinant human TfR-1. The assay is described as follows: SPR Biacore T200, His-tagged TfR-1 captured by anti-His, single cycle kinetics, 1:1 model. The protocol: (§2) Binding kinetics. Binding kinetics of TXP1 and A06 VNAR antibodies were determined by surface plasmon resonance (SPR) using a Biacore T200 (GE Healthcare). A His-capture kit (GE Healthcare) was used to immobilize anti-His antibodies on CM5 chips (as recommended by the manufacturer). His-tagged recombinant cynomolgus and human TfR-1 in 0.1% BSA in HBS-EP+ buffer (GE Healthcare) was captured at flow rate 10 μl/min. Analyte binding was measured using the single cycle kinetic SPR method on a Biacore T200. Analytes were injected at increasing concentrations (0.98, 3.9, 15.6, 62.5 and 250 nM) in HBS-EP+ at flow rate 30 μl/min. A flow cell without TfR-1 captured served as a reference. The chips were regenerated in 10 mM glycine-HCl, pH 1.5. Sensorgrams were fitted using 1:1 binding model and kinetic constants determined using Biacore T200 Evaluation software (GE Healthcare). Association and dissociation were measured for 360s and 1500s respectively, with flow rate at […].

The target in assay [5] is T1, recombinant cynomolgus TfR-1. The description is as above. The protocol:
as §2

The target in another assay is T4, recombinant mouse TfR-1 (mouse, UniProt Q62351 89-763, limits assumed).
T4 construct: also called mTfR-1
T4 sequence (Q62351 89-763 limits assumed): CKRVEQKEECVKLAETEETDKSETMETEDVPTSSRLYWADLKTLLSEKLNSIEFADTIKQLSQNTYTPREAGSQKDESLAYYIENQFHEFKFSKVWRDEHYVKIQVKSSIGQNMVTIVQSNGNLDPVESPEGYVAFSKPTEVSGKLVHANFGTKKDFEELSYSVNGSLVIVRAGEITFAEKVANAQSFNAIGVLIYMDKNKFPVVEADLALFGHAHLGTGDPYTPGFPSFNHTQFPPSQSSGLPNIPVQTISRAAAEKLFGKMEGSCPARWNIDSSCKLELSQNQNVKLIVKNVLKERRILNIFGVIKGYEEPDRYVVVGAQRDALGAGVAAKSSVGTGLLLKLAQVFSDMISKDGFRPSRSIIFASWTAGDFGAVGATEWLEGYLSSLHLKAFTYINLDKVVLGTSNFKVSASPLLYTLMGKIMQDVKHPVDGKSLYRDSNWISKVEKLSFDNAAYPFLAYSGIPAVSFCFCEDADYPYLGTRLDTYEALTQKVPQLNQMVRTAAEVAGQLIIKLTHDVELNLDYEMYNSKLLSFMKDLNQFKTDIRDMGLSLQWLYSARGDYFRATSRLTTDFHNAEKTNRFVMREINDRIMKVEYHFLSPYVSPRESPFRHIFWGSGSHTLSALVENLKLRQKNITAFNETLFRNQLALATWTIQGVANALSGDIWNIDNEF
The assay is described as follows: ELISA, plate-coated recombinant TfR-1, anti-hFc HRP detection. Here is the method: (§3) TfR-1 binding ELISA. Nunc MaxiSorp plates were coated with 100 μl of 1 μg/ml of in-house purified recombinant human, mouse, rat and cynomolgus TfR-1 and incubated at 4° C. overnight. Plates were incubated with blocking buffer (2.5% non-fat dry milk in PBST) for 1 h at RT. Serially-diluted TXP1 was mixed with non-fat dry milk in PBST to a final concentration of 2.5% and incubated for 30 min. Blocked TXP1 solutions (100 μl) were transferred to the blocked plates and incubated for 1 hr. Plates were washed with PBST and incubated with anti-hFc HRP-conjugated antibody diluted 1:5,000 (Sigma) in blocking buffer for 30 min. Plates were washed and developed with SureBlue™ TMB substrate, the reaction stopped with 1% HCl and absorbance measured at 450 nm.

Assay [6] deals with T3, recombinant human TfR-1. The assay is described as above. The protocol:
as §3

Assay [7] concerns the target T1, recombinant cynomolgus TfR-1. The description is as above. Here is the method:
as §3

The target in the next assay is T5, recombinant rat TfR-1 (rat, UniProt Q99376 87-761, limits assumed).
T5 construct: also called rTfR-1
T5 sequence (Q99376 87-761 limits assumed): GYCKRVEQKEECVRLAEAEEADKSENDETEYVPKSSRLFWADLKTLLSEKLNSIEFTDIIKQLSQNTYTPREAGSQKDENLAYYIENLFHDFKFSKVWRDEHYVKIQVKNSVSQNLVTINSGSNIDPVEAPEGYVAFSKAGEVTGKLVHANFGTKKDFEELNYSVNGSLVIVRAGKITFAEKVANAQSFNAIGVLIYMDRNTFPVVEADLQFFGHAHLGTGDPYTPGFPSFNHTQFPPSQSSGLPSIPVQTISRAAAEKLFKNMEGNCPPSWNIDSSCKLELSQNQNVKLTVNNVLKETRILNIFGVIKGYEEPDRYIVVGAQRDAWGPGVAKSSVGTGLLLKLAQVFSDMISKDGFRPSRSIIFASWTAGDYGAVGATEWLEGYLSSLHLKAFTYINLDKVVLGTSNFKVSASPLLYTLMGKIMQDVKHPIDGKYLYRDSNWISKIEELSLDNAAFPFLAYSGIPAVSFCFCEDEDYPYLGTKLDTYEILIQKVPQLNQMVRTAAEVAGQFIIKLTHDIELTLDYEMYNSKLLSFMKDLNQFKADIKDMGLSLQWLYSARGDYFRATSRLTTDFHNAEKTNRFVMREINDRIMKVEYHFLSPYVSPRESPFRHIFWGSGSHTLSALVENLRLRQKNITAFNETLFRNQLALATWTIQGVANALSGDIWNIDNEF
The assay is described as above. Here is the method:
as §3

Assay [8] concerns the target T6, cell surface human TfR1 on hCMEC/D3 and SH-SY5Y cells (human, UniProt P02786 1-760).
T6 construct: whole, on cells; Endogenous receptor on the cell lines; also called cell surface TfR1; cell-surface hTfR1
The assay is described as follows: flow cytometry on hCMEC/D3 cells on ice, binding to cell surface TfR1, anti-hFc Alexa647. The protocol: Functional activity of the fully deimmunized variants was assessed using the hCMEC/D3 human endothelial cell line and the SY-SH5Y human neuronal cell line. Binding to hCMEC/D3 cells was assessed by incubation with serial antibody dilutions for 1h on ice to avoid internalization. The cells were fixed and binding to cell surface TfR1 was measured by flow cytometry. […] Internalization via cell-surface hTfR1 was assessed using the hCMEC/D3 and SY-SH5Y cell lines by incubation with the antibodies for 1 hour at 37° C.
Flow cytometry. hCMEC/D3 cells were seeded onto V-bottom 96-well plates at a density of 1×10⁴ cells/well. All incubations were carried out on ice to prevent internalization. After blocking in PBS containing 10% BSA (FACS buffer), cells were incubated with serial dilutions of TXP1. Cells were stained with propidium iodine (PI; Biolegend) for 20 min, followed by anti-hFc conjugated to Alexa647 diluted 1:300 (Jackson ImmunoResearch) for 30 min. After fixation in 4% PFA for 15 min, the cells were analyzed on a CytoFlex flow cytometer (Beckman Coulter). Gating of cells stained with secondary antibody alone was used to set the negative threshold for and the fluorescence intensity of approximately 1000 cells per condition was measured. EC50 values were calculated using a four parametric non-linear regression model.

Assay [9] deals with T1, recombinant cynomolgus TfR-1. The assay is described as follows: SPR Biacore T200, multi-cycle kinetics, 1:1 model.

T1 sequence (chain, as listed by the source): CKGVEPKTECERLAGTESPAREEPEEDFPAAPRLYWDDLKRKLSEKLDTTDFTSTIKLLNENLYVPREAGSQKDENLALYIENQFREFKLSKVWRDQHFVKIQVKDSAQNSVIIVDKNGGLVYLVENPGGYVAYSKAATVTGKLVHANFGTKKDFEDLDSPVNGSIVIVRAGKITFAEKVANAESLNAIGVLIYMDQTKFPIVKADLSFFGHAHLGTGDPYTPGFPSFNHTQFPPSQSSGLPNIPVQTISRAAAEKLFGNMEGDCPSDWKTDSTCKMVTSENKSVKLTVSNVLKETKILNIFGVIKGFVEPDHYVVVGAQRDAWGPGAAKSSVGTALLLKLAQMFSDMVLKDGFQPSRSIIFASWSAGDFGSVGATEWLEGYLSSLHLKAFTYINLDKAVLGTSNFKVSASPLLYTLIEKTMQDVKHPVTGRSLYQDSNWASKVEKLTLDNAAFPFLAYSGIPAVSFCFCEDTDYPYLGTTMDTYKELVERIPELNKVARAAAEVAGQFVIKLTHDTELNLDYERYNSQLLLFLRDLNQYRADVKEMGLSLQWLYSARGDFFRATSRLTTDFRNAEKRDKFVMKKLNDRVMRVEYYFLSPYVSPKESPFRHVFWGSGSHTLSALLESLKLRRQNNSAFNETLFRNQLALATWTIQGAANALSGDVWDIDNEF
T3 sequence (P02786 89-760 limits assumed): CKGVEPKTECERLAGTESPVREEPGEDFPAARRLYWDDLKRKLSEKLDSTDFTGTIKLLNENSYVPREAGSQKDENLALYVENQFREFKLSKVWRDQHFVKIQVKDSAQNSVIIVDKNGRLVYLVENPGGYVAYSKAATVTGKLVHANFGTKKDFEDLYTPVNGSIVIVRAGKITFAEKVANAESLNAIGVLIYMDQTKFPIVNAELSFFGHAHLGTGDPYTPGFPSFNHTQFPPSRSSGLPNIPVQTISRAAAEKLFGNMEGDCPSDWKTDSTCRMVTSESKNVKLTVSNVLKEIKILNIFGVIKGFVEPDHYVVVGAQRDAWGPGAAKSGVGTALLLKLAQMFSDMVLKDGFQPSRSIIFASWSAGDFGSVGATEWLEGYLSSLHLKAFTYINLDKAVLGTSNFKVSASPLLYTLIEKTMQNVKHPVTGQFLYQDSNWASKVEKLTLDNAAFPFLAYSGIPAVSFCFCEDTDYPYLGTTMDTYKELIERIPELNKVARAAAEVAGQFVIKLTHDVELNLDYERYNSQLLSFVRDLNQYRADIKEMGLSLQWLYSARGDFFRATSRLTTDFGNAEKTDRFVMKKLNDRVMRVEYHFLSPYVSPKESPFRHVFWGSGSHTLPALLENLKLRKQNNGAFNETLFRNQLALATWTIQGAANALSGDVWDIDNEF
T6 sequence (P02786 whole entry): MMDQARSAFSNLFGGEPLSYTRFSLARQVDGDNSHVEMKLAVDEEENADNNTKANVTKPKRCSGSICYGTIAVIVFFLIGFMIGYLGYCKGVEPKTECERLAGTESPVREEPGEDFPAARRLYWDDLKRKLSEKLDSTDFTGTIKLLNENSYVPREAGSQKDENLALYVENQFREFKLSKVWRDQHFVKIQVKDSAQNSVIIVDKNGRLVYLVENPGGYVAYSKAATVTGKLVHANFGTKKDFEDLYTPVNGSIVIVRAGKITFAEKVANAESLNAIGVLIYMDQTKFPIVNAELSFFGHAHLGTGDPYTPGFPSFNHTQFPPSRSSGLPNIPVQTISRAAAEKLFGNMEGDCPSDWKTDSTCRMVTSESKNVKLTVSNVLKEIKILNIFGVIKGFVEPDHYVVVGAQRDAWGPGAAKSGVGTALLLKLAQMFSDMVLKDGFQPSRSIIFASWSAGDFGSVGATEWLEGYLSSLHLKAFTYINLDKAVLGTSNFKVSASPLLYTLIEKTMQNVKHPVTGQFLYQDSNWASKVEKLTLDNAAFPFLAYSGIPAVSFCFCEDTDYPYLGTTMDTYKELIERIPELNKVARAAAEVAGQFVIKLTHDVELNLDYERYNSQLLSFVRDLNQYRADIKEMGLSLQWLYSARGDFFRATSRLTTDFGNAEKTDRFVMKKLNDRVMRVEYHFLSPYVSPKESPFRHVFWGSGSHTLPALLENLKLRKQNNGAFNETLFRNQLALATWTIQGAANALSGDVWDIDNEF

B1: TXP1 (Fc fusion)
chain: ARVDQTPQTITKETGESLTINCVLRDSNCALSSTYWYRKKSGSTNEENISKGGRYVETVNSGSKSFSLKINDLTVEDSGTYRCNVVGTWCMSWRDVYGGGTAVTVNA
notes: Bivalent VNAR-hFc; VNAR at the N-terminus of hFc IgG1; also called VNAR-hFc named TXP1; parental TXP1; not shown: human IgG1 Fc domain (hFc) with attenuated effector function mutations E233P/L234V/L235A/AG236 (deletion of G236)+A327G/
For B1, the EC50 amounted to 1.4 nM in [1]; 1.9 nM with recombinant human TfR-1 [2]; 1.5 nM with recombinant human TfR-1 [6]; 1.6 nM in assay [7]; 2.2 nM in assay [8]. The binding result with HSA, with recombinant mouse TfR-1 and in the assay with recombinant rat TfR-1 was “no binding” throughout. Besides, the Kd came out at 5.1 nM with recombinant human TfR-1 [3], 1.03 nM in the assay with recombinant human TfR-1 [4], 3.14 nM in assay [5] and 1.8 nM in assay [9]. Further, the koff in the assay with recombinant human TfR-1 [3] came to 0.00027 s⁻¹; in the assay with recombinant human TfR-1 [4], 0.000134 s⁻¹; in assay [5], 0.000365 s⁻¹; in assay [9], 9.6e-05 s⁻¹. The kon with recombinant human TfR-1 [3] turned out to be 54000 M⁻¹ s⁻¹; in the assay with recombinant human TfR-1 [4], 129000 M⁻¹ s⁻¹; in assay [5], 116000 M⁻¹ s⁻¹; in assay [9], 53000 M⁻¹ s⁻¹.
